The assay concerns the target human noradrenaline transporter (hNET) (human) (UniProt P23975). Nature of the assay: cell-based or functional assay.

Sequence of human noradrenaline transporter (hNET) (human) (P23975 whole entry): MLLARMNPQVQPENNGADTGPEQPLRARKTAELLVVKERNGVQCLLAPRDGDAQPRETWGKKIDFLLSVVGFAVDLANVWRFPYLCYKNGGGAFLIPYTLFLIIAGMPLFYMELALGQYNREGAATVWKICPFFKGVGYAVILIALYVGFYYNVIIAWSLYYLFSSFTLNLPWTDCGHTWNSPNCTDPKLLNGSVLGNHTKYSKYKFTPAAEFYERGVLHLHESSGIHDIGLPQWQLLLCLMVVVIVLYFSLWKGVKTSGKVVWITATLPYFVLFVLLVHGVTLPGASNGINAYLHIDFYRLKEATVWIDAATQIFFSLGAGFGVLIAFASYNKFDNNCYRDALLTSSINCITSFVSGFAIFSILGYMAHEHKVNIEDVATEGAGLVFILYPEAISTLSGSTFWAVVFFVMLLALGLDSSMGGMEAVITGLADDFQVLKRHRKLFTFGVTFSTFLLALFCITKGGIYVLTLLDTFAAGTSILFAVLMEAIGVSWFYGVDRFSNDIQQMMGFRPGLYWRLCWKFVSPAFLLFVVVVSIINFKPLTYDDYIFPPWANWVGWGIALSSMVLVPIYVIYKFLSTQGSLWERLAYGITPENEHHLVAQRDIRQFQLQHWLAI

χ-MrIA (peptide) came in with an Av IC50, inhibition of NA uptake via hNET (log M (unit not given)) of -6.3.
